From patent publication US9993536B2, “Peptides and combination of peptides and scaffolds for use in immunotherapy against renal cell carcinoma (RCC) and other cancers” (immatics biotechnologies GmbH, priority 2015, dated 2018)

Molecular target: HLA-A*02:01 (Homo sapiens, UniProt P04439, D140Y/D185E/D98H/E176V/E277Q/G131W/G231S/I119V/I121R/I166T/I218V/L300P/L318F/N151K/N90K/P208A/P217A/Q86G/Q94H/R138H/R169H/T345S)
Experiment: MHC binding assay (UV-ligand exchange, beta2m ELISA)
Conditions: peptide exchange yield, HLA-A*02:01, UV-ligand exchange
Excerpt: Candidate peptides for T cell based therapies according to the present invention were further tested for their MHC binding capacity (affinity). The individual peptide-MHC complexes were produced by UV-ligand exchange, where a UV-sensitive peptide is cleaved upon UV-irradiation, and exchanged with the peptide of interest as analyzed. Only peptide candidates that can effectively bind and stabilize the peptide-receptive MHC molecules prevent dissociation of the MHC complexes. To determine the yield of the exchange reaction, an ELISA was performed based on the detection of the light chain (β2m) of stabilized MHC complexes. The assay was performed as generally described in Rodenko et al. (Rodenko et al., 2006).
96 well MAXISorp plates (NUNC) were coated over night with 2 ug/ml streptavidin in PBS at room temperature, washed 4× and blocked for 1 h at 37° C. in 2% BSA containing blocking buffer. Refolded HLA-A*02:01/MLA-001 monomers served as standards, covering the range of 15-500 ng/ml. Peptide-MHC monomers of the UV-exchange reaction were diluted 100 fold in blocking buffer. Samples were incubated for 1 h at 37° C., washed four times, incubated with 2 ug/ml HRP conjugated anti-β2m for 1 h at 37° C., washed again and detected with TMB solution that is stopped with […]. Absorption was measured at 450 nm. Candidate peptides that show a high exchange yield (preferably higher than 50%, most preferred higher than 75%) are generally preferred for a generation and production of antibodies or fragments thereof, and/or T cell receptors or fragments thereof, as they show sufficient avidity to the MHC molecules and prevent dissociation of the MHC complexes.

| Peptide exchange (MHC class I binding score) | Substance |
| --- | --- |
| ++ (≥20% = ++) | 108 (VLISVLQAI; listed as Homo sapiens) [compound 108] |
| +++ (≥50 = +++) | 56 (ILMDFSNSM; listed as Homo sapiens) [compound 56] |
| ++ (≥20% = ++) | 97 (TLISELVQA; listed as Homo sapiens) [compound 97] |
| +++ (≥50 = +++) | 96 (TLAETLVNL; listed as Homo sapiens) [compound 96] |
| ++ (≥20% = ++) | 69 (ILADLLPSL; listed as Homo sapiens) [compound 69] |
| +++ (≥50 = +++) | 62 (VLAGPAFLVQL; listed as Homo sapiens) [compound 62] |
| +++ (≥50 = +++) | 59 (SLKNNVVSV; listed as Homo sapiens) [compound 59] |
| ++ (≥20% = ++) | 91 (MLLSSLVSL; listed as Homo sapiens) [compound 91] |
| +++ (≥50 = +++) | 23 (YIQEVVQYI; listed as Homo sapiens) [compound 23] |
| ++ (≥20% = ++) | 70 (SLTALRLLL; listed as Homo sapiens) [compound 70] |
| ++ (≥20% = ++) | 14 (ALLTETIFL; listed as Homo sapiens) [compound 14] |
| ++ (≥20% = ++) | 57 (SLQKEILYL; listed as Homo sapiens) [compound 57] |
| ++ (≥20% = ++) | 28 (FIADLVVGL; listed as Homo sapiens) [compound 28] |
| ++ (≥20% = ++) | 52 (SILDAVQRV; listed as Homo sapiens) [compound 52] |
| ++ (≥20% = ++) | 94 (ILHHKVYDL; listed as Homo sapiens) [compound 94] |
| ++ (≥20% = ++) | 66 (TLLKTIIKV; listed as Homo sapiens) [compound 66] |
| ++ (≥20% = ++) | 111 (TLLETEMLL; listed as Homo sapiens) [compound 111] |
| +++ (≥50 = +++) | 113 (SLFDWNVKL; listed as Homo sapiens) [compound 113] |
| +++ (≥50 = +++) | 104 (ALFEGVVRQI; listed as Homo sapiens) [compound 104] |

| Peptide exchange (MHC class I binding score) | Substance |
| --- | --- |
| ++ (≥20% = ++) | 72 (YSLEKVFGI; listed as Homo sapiens) [compound 72] |
| ++++ (≥75% = ++++) | 58 (FLVDFEQSHL; listed as Homo sapiens) [compound 58] |
| +++ (≥50 = +++) | 82 (SLLQATDFMSL; listed as Homo sapiens) [compound 82] |
| ++ (≥20% = ++) | 12 (ALDPSGNQLI; listed as Homo sapiens) [compound 12] |
| +++ (≥50 = +++) | 44 (ALFSFVTAL; listed as Homo sapiens) [compound 44] |
| ++ (≥20% = ++) | 68 (YVLTQPPSV; listed as Homo sapiens) [compound 68] |
| ++ (≥20% = ++) | 25 (LLVPAHLVAA; listed as Homo sapiens) [compound 25] |
| ++ (≥20% = ++) | 48 (VVASNIMEV; listed as Homo sapiens) [compound 48] |
| +++ (≥50 = +++) | 45 (ALLGIPLTL; listed as Homo sapiens) [compound 45] |
| ++ (≥20% = ++) | 11 (FIQTEAPKEV; listed as Homo sapiens) [compound 11] |
| +++ (≥50 = +++) | 92 (FLFRDILEL; listed as Homo sapiens) [compound 92] |
| ++ (≥20% = ++) | 90 (FTLEKNFVI; listed as Homo sapiens) [compound 90] |
| ++ (≥20% = ++) | 5 (YLYPNLTRL; listed as Homo sapiens) [compound 5] |
| ++ (≥20% = ++) | 19 (LLDPGSLQL; listed as Homo sapiens) [compound 19] |
| ++ (≥20% = ++) | 30 (QLFYTKIFL; listed as Homo sapiens) [compound 30] |
| ++ (≥20% = ++) | 41 (GLLKTLQKL; listed as Homo sapiens) [compound 41] |
| ++ (≥20% = ++) | 65 (IIYGGSVTGA; listed as Homo sapiens) [compound 65] |
| +++ (≥50 = +++) | 107 (VLMDLKALLL; listed as Homo sapiens) [compound 107] |
| ++++ (≥75% = ++++) | 109 (YLWSRVEKL; listed as Homo sapiens) [compound 109] |

| Peptide exchange (MHC class I binding score) | Substance |
| --- | --- |
| ++ (≥20% = ++) | 86 (GLLQGKLALL; listed as Homo sapiens) [compound 86] |
| ++ (≥20% = ++) | 63 (GLIEDHFDVTV; listed as Homo sapiens) [compound 63] |
| ++ (≥20% = ++) | 10 (KLLQNNYGL; listed as Homo sapiens) [compound 10] |
| +++ (≥50 = +++) | 114 (ALAVNISAA; listed as Homo sapiens) [compound 114] |
| +++ (≥50 = +++) | 105 (ALADLDELLIRA; listed as Homo sapiens) [compound 105] |
| ++++ (≥75% = ++++) | 93 (GVMAGDIYSV; listed as Homo sapiens) [compound 93] |
| +++ (≥50 = +++) | 39 (YLLNLNHLGL; listed as Homo sapiens) [compound 39] |
| +++ (≥50 = +++) | 71 (ALDGHLYAV; listed as Homo sapiens) [compound 71] |
| ++ (≥20% = ++) | 103 (KLQDGLLHI; listed as Homo sapiens) [compound 103] |
| +++ (≥50 = +++) | 47 (TLAEVRAVQEI; listed as Homo sapiens) [compound 47] |
| ++ (≥20% = ++) | 54 (ALVAKGLVQA; listed as Homo sapiens) [compound 54] |
| ++ (≥20% = ++) | 53 (FLLEIRQTL; listed as Homo sapiens) [compound 53] |
| +++ (≥50 = +++) | 31 (VLFGLDPAVIKV; listed as Homo sapiens) [compound 31] |
| ++ (≥20% = ++) | 55 (YLALILPVL; listed as Homo sapiens) [compound 55] |
| +++ (≥50 = +++) | 40 (YIQEHLLQI; listed as Homo sapiens) [compound 40] |
| ++ (≥20% = ++) | 100 (KLNVAPLAV; listed as Homo sapiens) [compound 100] |
| +++ (≥50 = +++) | 24 (FTLGTTVFL; listed as Homo sapiens) [compound 24] |
| +++ (≥50 = +++) | 106 (VLMDLKALL; listed as Homo sapiens) [compound 106] |
